# Reference: PMC2903362 (The Journal of Biological Chemistry, 2010)
# Substitutions are numbered along the chain they refer to. Names may count otherwise.
# T1: FlK (fluoroacetyl-CoA thioesterase; WtFlK) (Streptantibioticus cattleyicolor, UniProt Q1EMV2)
# T1 sequence (Q1EMV2 1-139): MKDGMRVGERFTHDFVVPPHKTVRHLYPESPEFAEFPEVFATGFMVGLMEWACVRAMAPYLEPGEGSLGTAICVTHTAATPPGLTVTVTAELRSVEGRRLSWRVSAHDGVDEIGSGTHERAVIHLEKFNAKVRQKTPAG
# B1: wild-type FlK (fluoroacetyl-CoA thioesterase FlK) (enzyme, Streptomyces cattleya)
# chain: T1 sequence (Q1EMV2 1-139)
# B2: FlK T42S mutant (enzyme, Streptomyces cattleya)
# chain: T1 sequence (Q1EMV2 1-139) with T42S
# B3: FlK T42A mutant (enzyme, Streptomyces cattleya)
# chain: T1 sequence (Q1EMV2 1-139) with T42A
# B4: FlK E50A mutant (enzyme, Streptomyces cattleya)
# chain: T1 sequence (Q1EMV2 1-139) with E50A
# B5: selenomethionine-labelled wild-type FlK (enzyme, Streptomyces cattleya)
# chain: T1 sequence (Q1EMV2 1-139)
# modifications: L-selenomethionine incorporated
# Experiments:
# [1] = target: T1, FlK (fluoroacetyl-CoA thioesterase; WtFlK); assay: X-ray crystal structure of complex; type: binding; conditions: 10 mM FAcCPan, 100 mM CHES pH 9.5, 0.8 M trisodium citrate; active site
# [2] = target: the molecule itself; assay: SEC
# [3] = target: the molecule itself; assay: crystal structure
# [4] = target: the molecule itself; assay: crystal structure; remark: listed apart in the source
Molecule,X-ray crystal structure of complex [1],stoichiometry N [2],stoichiometry N [3],stoichiometry N [4]
CC(C)(CO)[C@@H](O)C(=O)NCCC(=O)NCCCC(=O)CF [FAcCPan],"WtFlK in complex with two analogues of fluoroacetyl-pantetheine, FAcCPan, and FAcOPan",,,
B1,,2,4,
B2,,2,,4
B3,,2,,4
B4,,2,,
B5,,,,2
